US8889130B2, “Treatment of osteoarthritis and pain” (Abbvie Inc., priority 2011, dated 2014)

Legend:
[1] = test system: male Swiss Webster mice; test: Joint instability model (JIM) of osteoarthritis, cartilage degeneration histology; type: in vivo, mouse; details: Example 3.3.3 (FIG. 4); 21 day study; anti-IL-1β mAb 3, 6, 12 mg/kg; combination 6 mg/kg each
Experimental: The design of study of the in vivo activity of a mIL-1α/β DVD-Ig molecule in the joint instability model (JIM) of osteoarthritis in mice is shown in Table 19. All groups contained 25 mice (n=25), weighing approximately 30 grams (BW=30 g). The study was terminated after 21 days. Two and a half month old, male Swiss Webster mice (25/group/time point), housed 5/cage, were anesthetized with isoflurane anesthesia. Anterior cruciate ligament (ACL) trauma was administered on the right and left knees on day 0 in an attempt to induce OA lesions. Intraperitoneal (ip) treatments with IL-1 inhibitory antibodies IL-1α (9H10) and IL-1β (10G11), alone and in combination, were initiated the day of ACL trauma and continued every 4th day (q4d) for 20 days. The vehicle for the non-treatment control was PBS. Right and left knees were harvested on day 21, and histopathologic alterations were scored and characterized. Data were analyzed using only joints that had proliferative responses indicative of successful instability induction. The proliferative response/instability was scored 0-3, and only unstable joints (scores of 1, 2, or 3) were used in the final analysis. Medial and lateral femoral and tibial cartilage degeneration was scored for severity of cartilage degeneration on a scale 0-5. Four days after the last antibody dose, blood was drawn from all animals from each group for serum harvest. Body weights were recorded weekly. […]
Following 2-3 days in a decalcifying fixative (Surgipath Decalifier, Surgipath Medical Ind., Inc., Richmond Va.), both knee joints were trimmed of extraneous tissue, embedded in the frontal plane and sectioned. […] Slides were examined by a board-certified veterinary pathologist blinded to study group designation, and were scored according to the method below. […]
Medial and lateral femoral and tibial cartilage degeneration were scored for severity of cartilage degeneration using the following system: Depth/extent of chondrocyte and proteoglycan loss with fibrillation: […]
The design of this study was similar to that described above in Example 3.3.1. […] Body weights were recorded weekly. […]

[2] = test system: mice (female BALB/c); test: Mouse carrageenan-induced inflammatory pain model, thermal hyperalgesia (paw withdrawal latency); type: in vivo; details: Example 8; 48 and 96 hours; single mAb 900 μg; diclofenac 30 mg/kg
Experimental: To evaluate whether neutralization of IL-1α and IL-1β produces antinociceptive effects in inflammatory pain conditions, anti-IL-1α and anti-IL-1β mAbs were evaluated for the ability to reverse established pain in the mouse carrageenan paw model of nociceptive pain.
The efficacy of the anti-IL-1α and anti-IL-1β mAbs was evaluated when administered alone or in combination in the mouse carrageenan model (FIG. 15). At 30 hours after intraplantar carrageenan injection: 900 μg of either anti-IL-1α mAb, anti-IL-1β mAb, or their combination were administered in different groups of mice. Thermal hyperalgesia testing was performed 48 and 96 hours after carrageenan. […] The antinociceptive effect in 900 μg combination group was 53±7% at 48 hours, and 82±11% at 96 hours.
Different groups of animals were treated either with vehicle or a combination of anti-IL-1α and anti-IL-1β mAbs (100, 300, or 900 μg/mouse of each mAb) 30 hours after carrageenan injection. […] The antinociceptive effect in 900 μg treatment group was 70±9% at 48 hours, and 62±4% at 96 hours. Diclofenac (30 mg/kg), a non-steroidal, anti-inflammatory analgesic, was included as positive control in the study, and it increased the mean paw withdrawal latency of the injured paw to 7.01±0.58 s at 48 hours and 7.48±0.34 s at 96 hours when administered p.o. 60 minutes before testing (p<0.01 at both time points).

B1: 10G11: mouse anti-mouse IL-1β monoclonal antibody (clone 10G11) from IL-1α/β double KO mice (antibody, V domains shown)
VH: EVQLQQSGPELVKPGTSVKMSCKTSGYTFTSYVMHWVKQKPGQGLEWIGYIIPYNDNTKYNEKFKGKATLTSDKSSSTAYMELSSLTSEDSAVYYCARRNEYYGSSFFDYWGQGTTLTVSS
VL: DIQMTQSPASLSASVGETVTITCRGSGILHNYLVWYQQKQGKSPQLLVYSAKILADGVPSRFSGSGSGTQYSLKINSLQPEDFGSYYCQHFWSTPFTFGSGTKLEIKR
modifications: heavy chain variable domain of 10G11; light chain variable domain of 10G11
notes: mouse anti-mouse IL-1β monoclonal antibody (clone 10G11) from IL-1α/β double KO mice
preventing cartilage degradation (medial tibial cartilage degeneration scores) [1]: not effective in preventing cartilage degradation at any dose tested | thermal hyperalgesia / antinociceptive effect [2]: no significant antinociceptive effect
